What follows are binders tested against HLA-B*08:01 (human) (assay: UV-induced peptide exchange, HLA class I ELISA; Pos peptide = 100%). Settings: remark: other sources report otherwise.

exchange rate with Pos peptide	Binder
2.7%	LMAQRLLLR (here or on the partner: biotinylated heavy chain) [P97 9-mer …]
2.4%	IVWWCPMSR (here or on the partner: biotinylated heavy chain) [P98 9-mer …]
3.1%	FLFLLLPLS (here or on the partner: biotinylated heavy chain) [P87 9-mer …]
1.4%	RVGNCKHLK (here or on the partner: biotinylated heavy chain) [P82 9-mer …]

The remaining lines, values behind:

Binder	exchange rate with Pos peptide
QLIAMDSAI (here or on the partner: biotinylated heavy chain) [P22 9-mer …]	3.9%
LLERNSFEV (here or on the partner: biotinylated heavy chain) [P73 9-mer …]	2.6%
IPVLTRWPL (here or on the partner: biotinylated heavy chain) [P19 9-mer …]	14.5%
CYLGRQKRF (here or on the partner: biotinylated heavy chain) [P61 9-mer …]	3.6%
CPMSRLRLA (here or on the partner: biotinylated heavy chain) [P46 9-mer …]	14.5%
HVPKILSGK (here or on the partner: biotinylated heavy chain) [P58 9-mer …]	5.3%
RAKCKFSIL (here or on the partner: biotinylated heavy chain) [P56 9-mer …]	38%
YLRRQKRLK (here or on the partner: biotinylated heavy chain) [P60 9-mer …]	10.2%

Source: patent US20230035403A1, “Method For Determining Responsiveness To Prostate Cancer Treatment” (Janssen Biotech, Inc., priority 2020, published 2023)
